According to PMC12711061, “Far-infrared irradiation attenuates vessel contraction by activating SERCA2 through disruption of SERCA2 and PLN interaction” (PLOS One, 2025):

Target: sarcoendoplasmic reticulum Ca2+-ATPase 2 (SERCA2), endogenous in rat VSMCs (rat (endogenous in rat aortic VSMCs), UniProt P11507 1-1043)
Experiment: cell-based or functional assay

Sequence of sarcoendoplasmic reticulum Ca2+-ATPase 2 (SERCA2), endogenous in rat VSMCs (P11507 whole entry): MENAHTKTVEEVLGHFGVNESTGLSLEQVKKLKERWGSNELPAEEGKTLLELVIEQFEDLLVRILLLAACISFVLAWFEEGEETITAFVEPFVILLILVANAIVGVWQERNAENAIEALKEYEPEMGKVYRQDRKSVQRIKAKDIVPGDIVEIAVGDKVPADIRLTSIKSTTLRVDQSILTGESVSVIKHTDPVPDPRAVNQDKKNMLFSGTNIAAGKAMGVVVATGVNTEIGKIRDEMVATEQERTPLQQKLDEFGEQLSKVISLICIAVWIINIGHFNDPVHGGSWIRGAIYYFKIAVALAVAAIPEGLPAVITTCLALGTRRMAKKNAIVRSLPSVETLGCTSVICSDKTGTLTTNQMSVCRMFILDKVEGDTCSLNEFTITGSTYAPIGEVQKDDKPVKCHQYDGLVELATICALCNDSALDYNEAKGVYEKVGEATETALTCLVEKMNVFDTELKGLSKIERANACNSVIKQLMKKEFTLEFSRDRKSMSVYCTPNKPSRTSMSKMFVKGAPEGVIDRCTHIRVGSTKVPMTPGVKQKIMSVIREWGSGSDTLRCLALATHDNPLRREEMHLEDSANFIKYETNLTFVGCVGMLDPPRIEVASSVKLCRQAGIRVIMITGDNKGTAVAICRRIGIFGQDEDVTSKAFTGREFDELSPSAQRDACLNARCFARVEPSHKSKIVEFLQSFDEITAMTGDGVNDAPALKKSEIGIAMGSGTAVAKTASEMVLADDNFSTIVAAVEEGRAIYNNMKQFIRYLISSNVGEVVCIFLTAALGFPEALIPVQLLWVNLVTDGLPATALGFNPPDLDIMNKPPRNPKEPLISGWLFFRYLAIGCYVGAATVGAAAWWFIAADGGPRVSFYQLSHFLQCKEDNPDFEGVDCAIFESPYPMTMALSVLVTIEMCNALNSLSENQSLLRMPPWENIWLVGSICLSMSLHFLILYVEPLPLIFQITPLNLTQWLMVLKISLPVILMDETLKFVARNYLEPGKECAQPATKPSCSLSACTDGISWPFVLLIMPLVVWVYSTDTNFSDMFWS

Ca2+-dependent SERCA activity in VSMC lysate (enzyme-coupled spectrophotometric assay), FIR irradiation for 30 min against the RT control: 4.5 fold
B1: phospholamban (PLN), endogenous in rat VSMCs (natural protein, rat (endogenous in rat aortic VSMCs), UniProt P61016 1-52, looked up)
chain: MEKVQYLTRSAIRRASTIEMPQQARQNLQNLFINFCLILICLLLICIIVMLL
